Data on 84 variants can be found in the RNAGym collection of RNA variant scans (doi:10.1073/pnas.2313332121).

The labels stand for the following.
B1: TPR t1 (parent)
chain: GACCAAUCUGCCCUCAGAGCUCGAGAACAUCUUCGGAUGCAGAGGAGGCAGGCUUCGGUGGCGCGAUAGCGCCAACGUCCUCAACCUCCAAUGCAUCCCACCACAUGAUGAUGCCUGAAGAGCCUUGGUUUUUUG

The variants in this data set derive from B1. The data set is described as follows: polymerase ribozyme fitness, log enrichment relative to wild type (log ratio); higher = more active; in vitro selection for triplet polymerase activity. In a few lines:
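Libraries of mutants in each subunit of a heterodimeric triplet polymerase ribozyme were generated by PCR and transcribed. In triplicate, each went through one in vitro selection round: annealing with biotinylated primer, partner subunit and triplets; frozen incubation at −7 °C; gel excision of extended constructs; streptavidin-bead capture; RT-PCR. Fitness, taken from Illumina sequencing of input and output libraries, is the logarithm of a genotype's enrichment over wild-type enrichment, averaged across replicates with inverse-variance weights. The logarithm is base 2, and genotypes needed ≥10 input reads and ≥1 read per output to be kept.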
Turning to C22G G110U U125G, the “polymerase ribozyme fitness (log ratio)” value is -4.31.

For the variant C4G U7G U55A C99U U112G U132C, the “polymerase ribozyme fitness (log ratio)” value is -4.94.

C73U C102A: the “polymerase ribozyme fitness (log ratio)” value was -1.58.

On to U59C A83U, for which the “polymerase ribozyme fitness (log ratio)” value is -0.619.

For C97G U112G, the “polymerase ribozyme fitness (log ratio)” value was -5.5.

In the case of C11A U67C, the “polymerase ribozyme fitness (log ratio)” value is -5.83.

With C28U C40A C123A, the “polymerase ribozyme fitness (log ratio)” value is -3.16.

Consider A37G C89A, for which the “polymerase ribozyme fitness (log ratio)” value was -2.41.

In the case of U9G C86A C114A, the “polymerase ribozyme fitness (log ratio)” value was -0.649.

In the case of G44A C102U, the “polymerase ribozyme fitness (log ratio)” value is -4.04.

Turning to G77C U87A G93C A105U C115A, the “polymerase ribozyme fitness (log ratio)” value was -5.31.

On to C12A A46U C114U, for which the “polymerase ribozyme fitness (log ratio)” value is -3.89.

Regarding U7A U81G G122A, the “polymerase ribozyme fitness (log ratio)” value was -5.92.

In the case of A46U, the “polymerase ribozyme fitness (log ratio)” value was -1.11.

A37U C40U U87C G135U: the “polymerase ribozyme fitness (log ratio)” value is -1.29.

As for C20A C49G, the “polymerase ribozyme fitness (log ratio)” value is -2.27.

G19A G61A U125G: the “polymerase ribozyme fitness (log ratio)” value was -2.54.

On to G69A A121U, for which the “polymerase ribozyme fitness (log ratio)” value is -0.353.

On to C56A C124U, for which the “polymerase ribozyme fitness (log ratio)” value was determined as 1.18.

With U9A U78C C86A A121C, the “polymerase ribozyme fitness (log ratio)” value was 2.18.

On to C13U G45U G117U, for which the “polymerase ribozyme fitness (log ratio)” value was -2.03.

For U96A U133G, the “polymerase ribozyme fitness (log ratio)” value is -0.674.

As to G48C C62U C64U C97U A100U C123A, the “polymerase ribozyme fitness (log ratio)” value is -2.01.

C53G U106G: the “polymerase ribozyme fitness (log ratio)” value is -2.14.

Regarding C70U A75U G77U A83U U106A C114U C123G U133G, the “polymerase ribozyme fitness (log ratio)” value is -6.34.

With U116C, the “polymerase ribozyme fitness (log ratio)” value was -0.392.

With C8A C20U G60A C98U, the “polymerase ribozyme fitness (log ratio)” value was -0.889.

On to G44C C80U C88A, for which the “polymerase ribozyme fitness (log ratio)” value is -2.94.

Take U59A C64U C82G: the “polymerase ribozyme fitness (log ratio)” value is -0.95.

Take C86G C89G C104U: the “polymerase ribozyme fitness (log ratio)” value was -0.896.

A121G G135U: the “polymerase ribozyme fitness (log ratio)” value came to 0.495.

On to C20G G39A G57A U109A, for which the “polymerase ribozyme fitness (log ratio)” value was -3.93.

A2C A5C C114G C124A: the “polymerase ribozyme fitness (log ratio)” value was -3.41.

A6U G10C C12U C49A G69C A90C A91U: the “polymerase ribozyme fitness (log ratio)” value was -2.98.

Consider C11U G63C C80U, for which the “polymerase ribozyme fitness (log ratio)” value is -2.73.

In the case of G19A A43U C49U C124U, the “polymerase ribozyme fitness (log ratio)” value is -2.19.

As for U7A A105U C115U, the “polymerase ribozyme fitness (log ratio)” value is -3.4.

In the case of A29G A37U G61U, the “polymerase ribozyme fitness (log ratio)” value is -1.98.

On to G61U U131C, for which the “polymerase ribozyme fitness (log ratio)” value amounted to 0.233.

With C28U G61A C64U A121C, the “polymerase ribozyme fitness (log ratio)” value was -4.25.

C31A G44U C101U C124G: the “polymerase ribozyme fitness (log ratio)” value is -5.62.

As to C13U G60A A100U C101U C104U A121C, the “polymerase ribozyme fitness (log ratio)” value came to 1.93.

As for C8A G71A, the “polymerase ribozyme fitness (log ratio)” value came out at 0.22.

Consider G69A U78A G93A, for which the “polymerase ribozyme fitness (log ratio)” value is -4.02.

In the case of C20U A41C C72A C101G, the “polymerase ribozyme fitness (log ratio)” value was -3.66.

As to C12G U33G C76A A100C C123G, the “polymerase ribozyme fitness (log ratio)” value is -5.88.

As to C20A G51A G61C, the “polymerase ribozyme fitness (log ratio)” value was -6.95.

As for C64A C86U C98U, the “polymerase ribozyme fitness (log ratio)” value is -7.04.

In the case of C13U G44U A50G C53U C56U G93U C124G, the “polymerase ribozyme fitness (log ratio)” value was -1.13.

For G51U G52U C56A U78A, the “polymerase ribozyme fitness (log ratio)” value is -3.39.

Regarding C11G G19U C82U, the “polymerase ribozyme fitness (log ratio)” value was -5.29.

A41U A91C U92C: the “polymerase ribozyme fitness (log ratio)” value is -2.44.

As for G61A A95U A119U G120C C123A, the “polymerase ribozyme fitness (log ratio)” value is 1.22.

For the variant A5G U33A C124U, the “polymerase ribozyme fitness (log ratio)” value is -3.02.

For G19A C64U, the “polymerase ribozyme fitness (log ratio)” value was -2.88.

As to C15U U33G G61U U87A U112C, the “polymerase ribozyme fitness (log ratio)” value was -4.85.

Consider C8G C115A U130G, for which the “polymerase ribozyme fitness (log ratio)” value came out at 1.67.

For G42C C49U, the “polymerase ribozyme fitness (log ratio)” value is -2.21.

In the case of G127U U130G, the “polymerase ribozyme fitness (log ratio)” value is -0.841.

Turning to C12A A26U G61A U131G, the “polymerase ribozyme fitness (log ratio)” value is -4.35.

With C70G A84U, the “polymerase ribozyme fitness (log ratio)” value was -3.25.

Turning to A6U C13A U21C, the “polymerase ribozyme fitness (log ratio)” value was -1.41.

Regarding C11A C72U, the “polymerase ribozyme fitness (log ratio)” value was -1.58.

On to A16U G113U, for which the “polymerase ribozyme fitness (log ratio)” value was -4.23.

On to C31U A46C G113U A119G, for which the “polymerase ribozyme fitness (log ratio)” value is -5.51.

In the case of A16U C49A G51U U55G U126G G128U, the “polymerase ribozyme fitness (log ratio)” value is -5.16.

As for C4U U14A, the “polymerase ribozyme fitness (log ratio)” value was -2.88.

As for C12U U109C, the “polymerase ribozyme fitness (log ratio)” value is -2.5.

For U7G C8A, the “polymerase ribozyme fitness (log ratio)” value amounted to 0.287.

Take C3A A5U G36C G47C A75U G77A A105G U106A C123U U130C: the “polymerase ribozyme fitness (log ratio)” value is -2.36.

On to C62A U131A G135A, for which the “polymerase ribozyme fitness (log ratio)” value is -2.64.

As to C99U A111G, the “polymerase ribozyme fitness (log ratio)” value is -2.23.

Take G17U A18U G39U C123A: the “polymerase ribozyme fitness (log ratio)” value is -4.71.

Regarding U21G A119G, the “polymerase ribozyme fitness (log ratio)” value was -0.142.

Take C11U A46U C86U: the “polymerase ribozyme fitness (log ratio)” value is -2.1.

On to A74U C80U, for which the “polymerase ribozyme fitness (log ratio)” value is -1.18.

Regarding G36U C79A, the “polymerase ribozyme fitness (log ratio)” value was -3.02.

As to A2G C115A, the “polymerase ribozyme fitness (log ratio)” value was -0.495.

For G58C C85U C123G U132A, the “polymerase ribozyme fitness (log ratio)” value was 1.38.

As for G63U U130C, the “polymerase ribozyme fitness (log ratio)” value is -1.84.

A6U U30C: the “polymerase ribozyme fitness (log ratio)” value is -2.71.

Take G71A C104U: the “polymerase ribozyme fitness (log ratio)” value was -0.49.

On to C56A C79A A95C C101U U129A, for which the “polymerase ribozyme fitness (log ratio)” value was -4.76.

Consider A18U U59A A68G A91U G120U, for which the “polymerase ribozyme fitness (log ratio)” value is -6.77.
